This note sets out measurements from PMC11283359 (Molecular cell, 2024).

T1: 3XFLAG-MED26 (knock-in) (mouse (endogenous in CH12), UniProt Q7TN02 1-588)
T1 sequence (looked up): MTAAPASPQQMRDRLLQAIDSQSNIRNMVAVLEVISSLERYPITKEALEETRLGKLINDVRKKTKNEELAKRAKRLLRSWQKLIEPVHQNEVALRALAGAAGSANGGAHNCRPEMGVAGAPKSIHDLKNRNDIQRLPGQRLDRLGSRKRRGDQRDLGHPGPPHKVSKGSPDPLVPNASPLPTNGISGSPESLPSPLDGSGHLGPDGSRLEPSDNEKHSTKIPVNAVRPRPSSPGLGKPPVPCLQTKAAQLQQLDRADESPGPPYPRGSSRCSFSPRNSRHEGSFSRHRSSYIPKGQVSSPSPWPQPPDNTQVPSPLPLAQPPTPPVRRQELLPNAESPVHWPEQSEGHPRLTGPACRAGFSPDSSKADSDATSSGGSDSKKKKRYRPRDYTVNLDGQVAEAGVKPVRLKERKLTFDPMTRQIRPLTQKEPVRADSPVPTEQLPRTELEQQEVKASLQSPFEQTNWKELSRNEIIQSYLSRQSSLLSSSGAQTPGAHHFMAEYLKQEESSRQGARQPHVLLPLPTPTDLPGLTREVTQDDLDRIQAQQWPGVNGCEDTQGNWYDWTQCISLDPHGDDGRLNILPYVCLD

B1: MED7 (natural protein, mouse (endogenous in CH12), UniProt Q9CZB6 1-233, looked up)
chain: MGEPQQVSALPPPPMQYIKEYTDENIQEGLAPKPPPPIKDSYMMFGNQFQCDDLIIRPLESQGIERLHPMQFDHKKELRKLNMSILINFLDLLDILIRSPGSIKREEKLEDLKLLFVHVHHLINEYRPHQARETLRVMMEVQKRQRLETAERFQKHLERVIEMIQNCLASLPDDLPHSEAGMRVKAEPMDTDDNSNCPGQNEQQRESSGHRRDQIIEKDAALCVLIDEMNERP
B2: MED21 (natural protein, mouse (endogenous in CH12), UniProt Q9CQ39 1-144, looked up)
chain: MADRLTQLQDAVNSLADQFCNAIGVLQQCGPPASFSNIQTAINKDQPANPTEEYAQLFAALIARTAKDIDVLIDSLPSEESTAALQAASLYKLEEENHEAATCLEDVVYRGDMLLEKIQSALADIAQSQLKTRSVTHSHSLPDS
B3: MED31 (endogenous) (natural protein, mouse (endogenous in CH12), UniProt Q9CXU1 1-131, looked up)
chain: MAAAVAMETDDAGNRLRFQLELEFVQCLANPNYLNFLAQRGYFKDKAFVNYLKYLLYWKEPEYAKYLKYPQCLHMLELLQYEHFRKELVNAQCAKFIDEQQILHWQHYSRKRVRLQQALAEQQQQNNTAGK

The target of the assay is T1, 3XFLAG-MED26 (knock-in). As to the kind of experiment: cryo-EM structure.
Consider B1, for which the binding result is “binds”.

As for B2, the binding result is “binds”.

Take B3: the binding result is on record as “binds”.
